Experimental data as given in publication PMC10974336, “Characterization of a Novel Hyperthermophilic GH1 β-Glucosidase from Acidilobus sp. and Its Application in the Hydrolysis of Soybean Isoflavone Glycosides” (Microorganisms, 2024).

Tests used:
[1] = substrate: O=[N+]([O-])c1ccc(O[C@@H]2O[C@H](CO)[C@@H](O)[C@H](O)[C@H]2O)cc1; test: cells, lysate or membranes; type: biochemical, Acidilobus sp. 7A; conditions: crude enzyme, mutant BglAcN, 30 bp deletion, printed as nine residues (…) at positions 298 to 307, pH 5.0
purified protein = substrate: O=[N+]([O-])c1ccc(O[C@@H]2O[C@H](CO)[C@@H](O)[C@H](O)[C@H]2O)cc1; test: purified protein; type: biochemical, Acidilobus sp. 7A; conditions: pH 5.0 sodium citrate, 100 °C, pNPG 0.2 to 2 mM

Row | Protein | Km [1] [mM] | Vmax [1] [µmol/min/mg] | kcat [1] [s⁻¹] | kcat/Km [1] [M⁻¹ s⁻¹] | Km (purified protein) [mM] | Vmax (purified protein) [µmol/min/mg] | kcat (purified protein) [s⁻¹] | kcat/Km (purified protein) [M⁻¹ s⁻¹]
1 | BglAc (Acidilobus sp. 7A; DEL298-307) (protein, N-terminal 6xHis tag, pET-30a(+) NdeI/EcoRI, E. coli BL21(DE3), Ni-NTA; residues Glu208, Glu383, Gln19, His152, Asn207, Glu428, Trp429) MTVSFPKGFLFGWSQAGFQSEMGTPGSEDPNSDWYAWVHDRENIASGLVSGDLPENGPGYWGNYRRFHDAAQAMGLSAARIGVEWSRIFPKPTFDVKVHADVRGEEVASVDVSEQALEQLDRLANREAVNHYREMFSDLRSRGITFILNLYHWPLPLWLHDPIAIRRGNLSAPSGWLDVRAVVEFAKFAAYVAWKLDDLVYMYSTMNEPNVVWSHGFTQPKSGFPPGYLCFECSGKAMKNLLQAHARAYDIVKSMTKKPVGVIYATADWTPLTESEADRAAAEAAKAADRWAFFDMLGRLDWIGVNYYSRLVVRAGRSGFQVIPGYGFACEPNSVSPAGRPCSDFGWEFYPEGLYHALKDYWERYHLPLMVTENGAADEGDYLRPYYLVSHIYQVHRAMQEEVNVTGYLHWSLADNYEWASGFGKRFGLLMVDYETKRLYWRPSAFIYREIAKNNAITDEVEHLNRVPPLKPLRK | 8.58 | 288 | 260 | 30300 |  |  |  | 
2 | BglAc (Acidilobus sp. 7A) (protein, N-terminal 6xHis tag, pET-30a(+) NdeI/EcoRI, E. coli BL21(DE3), Ni-NTA; residues Glu208, Glu383, Gln19, His152, Asn207, Glu428, Trp429) MTVSFPKGFLFGWSQAGFQSEMGTPGSEDPNSDWYAWVHDRENIASGLVSGDLPENGPGYWGNYRRFHDAAQAMGLSAARIGVEWSRIFPKPTFDVKVHADVRGEEVASVDVSEQALEQLDRLANREAVNHYREMFSDLRSRGITFILNLYHWPLPLWLHDPIAIRRGNLSAPSGWLDVRAVVEFAKFAAYVAWKLDDLVYMYSTMNEPNVVWSHGFTQPKSGFPPGYLCFECSGKAMKNLLQAHARAYDIVKSMTKKPVGVIYATADWTPLTESEADRAAAEAAKAADRWAFFDMLSKGSPRDDLRGRLDWIGVNYYSRLVVRAGRSGFQVIPGYGFACEPNSVSPAGRPCSDFGWEFYPEGLYHALKDYWERYHLPLMVTENGAADEGDYLRPYYLVSHIYQVHRAMQEEVNVTGYLHWSLADNYEWASGFGKRFGLLMVDYETKRLYWRPSAFIYREIAKNNAITDEVEHLNRVPPLKPLRK |  |  |  |  | 3.41 | 474 | 418 | 123000
